Patent US20070105771A1 (Y S THERAPEUTICS, published 2007)

How the values were obtained:
[1] = target: T1, Purified recombinant human CD26 (rhDipeptidyl peptidase IV), R&D Systems CAT #1180-SE (human, UniProt P27487 29-766); test: SPR (Biacore), IgG1
T1 construct: Bought recombinant protein; also called hu-CD26; soluble human CD26
Protocol: Fabs produced in E. coli as described below were diluted in PBS in a concentration of ˜0.5 μM for the assay. A typical recording included a 3 minute period of injection of the Fab followed by a period of 15 minutes of dissociation, and analysis was performed based on the raw data of the binding curves accordingly.
Analyses thereof were performed using Biacore® as described in Example 1, excepting the binding partners were the rhuMAbs noted above.

[2] = target: T2, human CD26-derived 13 mer peptide 47 (human); test: peptide microarray
T2 peptide: RQLITEERIPNNT
Protocol: The overnight incubation was followed by three washings with each of PBS buffer pH 7.5 and water. The microarrays were then scanned using ArrayWorx-Microarray Scanner.
The SPOT recognition software package ArrayPro was used for data analysis. The mean of signal intensities from 3 identical subarrays on each microarray image was used for data evaluation.

T1 sequence (P27487 29-766 limits assumed): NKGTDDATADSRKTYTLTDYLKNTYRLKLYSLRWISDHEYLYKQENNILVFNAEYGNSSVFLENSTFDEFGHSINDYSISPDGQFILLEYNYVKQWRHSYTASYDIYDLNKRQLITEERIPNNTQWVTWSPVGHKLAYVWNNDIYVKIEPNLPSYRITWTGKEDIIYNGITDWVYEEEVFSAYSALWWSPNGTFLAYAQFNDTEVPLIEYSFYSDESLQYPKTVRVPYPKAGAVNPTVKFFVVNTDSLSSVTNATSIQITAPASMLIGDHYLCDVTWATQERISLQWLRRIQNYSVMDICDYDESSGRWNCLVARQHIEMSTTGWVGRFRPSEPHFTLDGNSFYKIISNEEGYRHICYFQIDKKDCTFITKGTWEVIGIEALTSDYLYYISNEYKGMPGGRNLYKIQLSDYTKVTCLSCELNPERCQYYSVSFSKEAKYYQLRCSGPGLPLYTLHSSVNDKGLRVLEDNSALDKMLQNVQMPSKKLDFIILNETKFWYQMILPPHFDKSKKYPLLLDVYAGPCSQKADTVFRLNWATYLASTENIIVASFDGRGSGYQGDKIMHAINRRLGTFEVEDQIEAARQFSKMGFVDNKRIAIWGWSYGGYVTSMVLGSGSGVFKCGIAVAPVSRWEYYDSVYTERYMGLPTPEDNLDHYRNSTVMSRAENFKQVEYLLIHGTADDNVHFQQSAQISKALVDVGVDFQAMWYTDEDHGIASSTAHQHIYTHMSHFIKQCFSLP

-fold against rhuMAb 409 [1]: 3.7 | Kd [1]: 0.22 nM | Mean Signal Value [2]: 0
B1: rhuMAb 411 (antibody, human IgG1, kappa, V domains shown)
VH: EVQLVESGAGVKQPGGTLRLTCTASGFSLTTYGVHWVRQAPGKGLEWVGVIWGDGRTDYDAAFMSRVTISKDTSKSTVYLQMNSLRAEDTAVYYCMRNRHDWFDYWGQGTTVTVSS
VL: DILLTQSPSSLSATPGERATITCRASQGIRNNLNWYQQKPGQAPRLLIYYSSNLQSGVPSRFSGSGSGTDFTLTISRLQPEDVAAYYCQQSIKLPFTFGSGTKVEIKR
notes: also called X411
